Assay results reported in US20170081400A1 (CEPHALON, published 2017).
Substitutions are numbered along the chain they refer to. Each block holds one binder with its values, some of them ahead of it.

Key:
[1] = molecular target: T1, human TL1A extracellular domain with N-terminal HIS and FLAG tag (human, UniProt O95150 72-251); assay: SPR Run 5, Ab from supernatant captured on Protein A, TL1A 5 ug/mL, timepoint 44
T1 construct: the whole entry is named
T1 sequence: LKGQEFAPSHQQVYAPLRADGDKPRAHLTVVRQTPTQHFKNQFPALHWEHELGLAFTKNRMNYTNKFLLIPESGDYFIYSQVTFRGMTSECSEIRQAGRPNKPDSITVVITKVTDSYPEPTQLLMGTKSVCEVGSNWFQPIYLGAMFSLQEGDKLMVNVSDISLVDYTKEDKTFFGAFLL
Excerpt: (§1) 1.5. Antibody expression and antigen binding as determined by SPR. Using a CM5 sensor chip (GE Healthcare) Protein A (Pierce) was coupled to the chip surface using an amine coupling kit (GE Healthcare). Protein A was coupled on flow cell 1 and 2 (or alternatively 3 and 4) using a BIACORE® T200. […] The amount of supernatant or purified protein (as well as the concentration) injected during the capture stage varied between runs and is specified in the header of the Tables 3-11. At the end of injection of the supernatant or purified antibody the change in response units was measured. This value was reported as Capture Level in Tables 3-11. […] The response units were measured prior to the end of the dissociation phase. […] The sensorgrams were double referenced (flow cell 2 is subtracted from flow cell 1 and a buffer blank). As there were a large number of antibody variants to screen, these were screened across different runs (Tables 3-11). […] A summary of the conditions used in each run is below:
(§2) 2.1. […] In some experiment the antibodies were purified using Protein A chromatography (See 1.4) and purified antibodies were used in BIACORE® (GE Healthcare) experiments.

[2] = molecular target: T1, human TL1A extracellular domain with …; assay: SPR Run 5, Ab from supernatant captured on Protein A, TL1A 5 ug/mL, timepoint 220
Excerpt: as §1, §2

B1: 320-394 (antibody, human IgG1, name in Kabat numbering, V domains shown)
VH: QVQLVQSGAEVKKPGASVKVSCKASLYTFTSYDINWVRQAPGQGLEWMGWLNPNSGNTGYAQKFQGRVTMTADRSTSTAYMELSSLRSEDTAVYYCAREVPETAAFEYWGQGTLVTVSS
VL: QSVLTQPPSVSGAPGQRVTISCTSSSSDIGAGLGVHWYQQLPGTAPKLLIEGYYNRPSGVPDRFSGSKSGTSASLTITGLLPEDEGDYYCQSYDGTLSALFGGGTKLTVLG
notes: human IgG1, lambda
TL1A Binding Level (Early) [1]: 13 RU
TL1A Binding Level (Late) [2]: 12 RU

B3: 320-405 (antibody, human IgG1, name in Kabat numbering, V domains shown)
VH: B1 VH with L26G, T28S
VL: B1 VL
notes: human IgG1, lambda
TL1A Binding Level (Early) [1]: 10 RU
TL1A Binding Level (Late) [2]: 9 RU

B4: 320-410 (antibody, human IgG1, name in Kabat numbering, V domains shown)
VH: B1 VH with L26G, T28L
VL: B1 VL
notes: human IgG1, lambda
TL1A Binding Level (Early) [1]: 11 RU
TL1A Binding Level (Late) [2]: 10 RU

B7: 320-402 (antibody, human IgG1, name in Kabat numbering, V domains shown)
VH: B1 VH with L26G, Y27L
VL: B1 VL
notes: human IgG1, lambda
TL1A Binding Level (Early) [1]: 11 RU
TL1A Binding Level (Late) [2]: 10 RU

B8: 320-398 (antibody, human IgG1, name in Kabat numbering, V domains shown)
VH: B1 VH with L26G, Y27S
VL: B1 VL
notes: human IgG1, lambda
TL1A Binding Level (Early) [1]: 12 RU
TL1A Binding Level (Late) [2]: 11 RU

B11: 320-404 (antibody, human IgG1, name in Kabat numbering, V domains shown)
VH: B1 VH with L26G, T28A
VL: B1 VL
notes: human IgG1, lambda
TL1A Binding Level (Early) [1]: 11 RU
TL1A Binding Level (Late) [2]: 10 RU

B13: 320-408 (antibody, human IgG1, name in Kabat numbering, V domains shown)
VH: B1 VH with L26G, T28H
VL: B1 VL
notes: human IgG1, lambda
TL1A Binding Level (Early) [1]: 13 RU
TL1A Binding Level (Late) [2]: 12 RU

B14: 320-396 (antibody, human IgG1, name in Kabat numbering, V domains shown)
VH: B1 VH with L26Y
VL: B1 VL
notes: human IgG1, lambda
TL1A Binding Level (Early) [1]: 12 RU
TL1A Binding Level (Late) [2]: 11 RU

B17: 320-406 (antibody, human IgG1, name in Kabat numbering, V domains shown)
VH: B1 VH with L26G, T28Q
VL: B1 VL
notes: human IgG1, lambda
TL1A Binding Level (Early) [1]: 8 RU
TL1A Binding Level (Late) [2]: 7 RU

B18: 320-400 (antibody, human IgG1, name in Kabat numbering, V domains shown)
VH: B1 VH with L26G, Y27D
VL: B1 VL
notes: human IgG1, lambda
TL1A Binding Level (Early) [1]: 11 RU
TL1A Binding Level (Late) [2]: 11 RU

B22: 320-397 (antibody, human IgG1, name in Kabat numbering, V domains shown)
VH: B1 VH with L26G, Y27A
VL: B1 VL
notes: human IgG1, lambda
TL1A Binding Level (Early) [1]: 12 RU
TL1A Binding Level (Late) [2]: 12 RU

B23: 320-399 (antibody, human IgG1, name in Kabat numbering, V domains shown)
VH: B1 VH with L26G, Y27Q
VL: B1 VL
notes: human IgG1, lambda
TL1A Binding Level (Early) [1]: 10 RU
TL1A Binding Level (Late) [2]: 10 RU

B25: 320-409 (antibody, human IgG1, name in Kabat numbering, V domains shown)
VH: B1 VH with L26G, T28K
VL: B1 VL
notes: human IgG1, lambda
TL1A Binding Level (Early) [1]: 10 RU
TL1A Binding Level (Late) [2]: 10 RU

B26: 320-407 (antibody, human IgG1, name in Kabat numbering, V domains shown)
VH: B1 VH with L26G, T28D
VL: B1 VL
notes: human IgG1, lambda
TL1A Binding Level (Early) [1]: 12 RU
TL1A Binding Level (Late) [2]: 11 RU

B27: 320-401 (antibody, human IgG1, name in Kabat numbering, V domains shown)
VH: B1 VH with L26G, Y27H
VL: B1 VL
notes: human IgG1, lambda
TL1A Binding Level (Early) [1]: 11 RU
TL1A Binding Level (Late) [2]: 10 RU

B29: 320-403 (antibody, human IgG1, name in Kabat numbering, V domains shown)
VH: B1 VH with L26G, Y27W
VL: B1 VL
notes: human IgG1, lambda
TL1A Binding Level (Early) [1]: 11 RU
TL1A Binding Level (Late) [2]: 10 RU

B33: 320-395 (antibody, human IgG1, name in Kabat numbering, V domains shown)
VH: B1 VH with L26W
VL: B1 VL
notes: human IgG1, lambda
TL1A Binding Level (Early) [1]: 13 RU
TL1A Binding Level (Late) [2]: 12 RU

Next, values leading:

TL1A Binding Level (Early) [1]: 7 RU
TL1A Binding Level (Late) [2]: 7 RU
B2: 320-414 (antibody, human IgG1, name in Kabat numbering, V domains shown)
VH: B1 VH with L26G, F29S
VL: B1 VL
notes: human IgG1, lambda

TL1A Binding Level (Early) [1]: 11 RU
TL1A Binding Level (Late) [2]: 10 RU
B5: 320-428 (antibody, human IgG1, name in Kabat numbering, V domains shown)
VH: B1 VH with L26G, T30L
VL: B1 VL
notes: human IgG1, lambda

TL1A Binding Level (Early) [1]: 11 RU
TL1A Binding Level (Late) [2]: 10 RU
B6: 320-420 (antibody, human IgG1, name in Kabat numbering, V domains shown)
VH: B1 VH with L26G, F29W
VL: B1 VL
notes: human IgG1, lambda

TL1A Binding Level (Early) [1]: 10 RU
TL1A Binding Level (Late) [2]: 9 RU
B9: 320-422 (antibody, human IgG1, name in Kabat numbering, V domains shown)
VH: B1 VH with L26G, T30A
VL: B1 VL
notes: human IgG1, lambda

TL1A Binding Level (Early) [1]: 11 RU
TL1A Binding Level (Late) [2]: 10 RU
B10: 320-424 (antibody, human IgG1, name in Kabat numbering, V domains shown)
VH: B1 VH with L26G, T30Q
VL: B1 VL
notes: human IgG1, lambda

TL1A Binding Level (Early) [1]: 11 RU
TL1A Binding Level (Late) [2]: 9 RU
B12: 320-419 (antibody, human IgG1, name in Kabat numbering, V domains shown)
VH: B1 VH with L26G, F29L
VL: B1 VL
notes: human IgG1, lambda

TL1A Binding Level (Early) [1]: 10 RU
TL1A Binding Level (Late) [2]: 9 RU
B15: 320-418 (antibody, human IgG1, name in Kabat numbering, V domains shown)
VH: B1 VH with L26G, F29K
VL: B1 VL
notes: human IgG1, lambda

TL1A Binding Level (Early) [1]: 10 RU
TL1A Binding Level (Late) [2]: 9 RU
B16: 320-426 (antibody, human IgG1, name in Kabat numbering, V domains shown)
VH: B1 VH with L26G, T30H
VL: B1 VL
notes: human IgG1, lambda

TL1A Binding Level (Early) [1]: 9 RU
TL1A Binding Level (Late) [2]: 8 RU
B19: 320-417 (antibody, human IgG1, name in Kabat numbering, V domains shown)
VH: B1 VH with L26G, F29H
VL: B1 VL
notes: human IgG1, lambda

TL1A Binding Level (Early) [1]: 9 RU
TL1A Binding Level (Late) [2]: 8 RU
B20: 320-413 (antibody, human IgG1, name in Kabat numbering, V domains shown)
VH: B1 VH with L26G, F29A
VL: B1 VL
notes: human IgG1, lambda

TL1A Binding Level (Early) [1]: 9 RU
TL1A Binding Level (Late) [2]: 8 RU
B21: 320-416 (antibody, human IgG1, name in Kabat numbering, V domains shown)
VH: B1 VH with L26G, F29D
VL: B1 VL
notes: human IgG1, lambda

TL1A Binding Level (Early) [1]: 5 RU
TL1A Binding Level (Late) [2]: 4 RU
B24: 320-415 (antibody, human IgG1, name in Kabat numbering, V domains shown)
VH: B1 VH with L26G, F29Q
VL: B1 VL
notes: human IgG1, lambda

TL1A Binding Level (Early) [1]: 10 RU
TL1A Binding Level (Late) [2]: 10 RU
B28: 320-423 (antibody, human IgG1, name in Kabat numbering, V domains shown)
VH: B1 VH with L26G, T30S
VL: B1 VL
notes: human IgG1, lambda

TL1A Binding Level (Early) [1]: 14 RU
TL1A Binding Level (Late) [2]: 12 RU
B30: 320-425 (antibody, human IgG1, name in Kabat numbering, V domains shown)
VH: B1 VH with L26G, T30D
VL: B1 VL
notes: human IgG1, lambda

TL1A Binding Level (Early) [1]: 10 RU
TL1A Binding Level (Late) [2]: 9 RU
B31: 320-411 (antibody, human IgG1, name in Kabat numbering, V domains shown)
VH: B1 VH with L26G, T28W
VL: B1 VL
notes: human IgG1, lambda

TL1A Binding Level (Early) [1]: 10 RU
TL1A Binding Level (Late) [2]: 9 RU
B32: 320-412 (antibody, human IgG1, name in Kabat numbering, V domains shown)
VH: B1 VH with L26G, T28Y
VL: B1 VL
notes: human IgG1, lambda

TL1A Binding Level (Early) [1]: 12 RU
TL1A Binding Level (Late) [2]: 11 RU
B34: 320-429 (antibody, human IgG1, name in Kabat numbering, V domains shown)
VH: B1 VH with L26G, T30W
VL: B1 VL
notes: human IgG1, lambda

TL1A Binding Level (Early) [1]: 11 RU
TL1A Binding Level (Late) [2]: 10 RU
B35: 320-427 (antibody, human IgG1, name in Kabat numbering, V domains shown)
VH: B1 VH with L26G, T30K
VL: B1 VL
notes: human IgG1, lambda
